Experiments:
6His-PUX7 = target: T1, 6His-PUX7 (Arabidopsis thaliana, UniProt Q94JZ8 1-468); assay: ITC
T1 sequence (looked up): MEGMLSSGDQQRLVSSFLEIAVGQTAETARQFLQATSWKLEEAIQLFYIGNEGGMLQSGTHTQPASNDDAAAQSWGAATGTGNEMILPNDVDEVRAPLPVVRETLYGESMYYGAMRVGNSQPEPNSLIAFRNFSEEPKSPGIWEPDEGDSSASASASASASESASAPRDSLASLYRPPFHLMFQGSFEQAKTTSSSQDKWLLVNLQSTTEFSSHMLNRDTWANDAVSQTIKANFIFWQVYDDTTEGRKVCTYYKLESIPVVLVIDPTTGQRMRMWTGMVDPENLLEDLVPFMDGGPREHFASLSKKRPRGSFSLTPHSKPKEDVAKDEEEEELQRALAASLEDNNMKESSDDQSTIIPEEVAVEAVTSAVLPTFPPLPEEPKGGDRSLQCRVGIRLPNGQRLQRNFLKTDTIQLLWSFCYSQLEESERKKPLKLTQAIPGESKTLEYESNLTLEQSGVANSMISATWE

6His-PUX8 = target: T2, 6His-PUX8 (Arabidopsis thaliana, UniProt F4JPR7 1-564); assay: ITC
T2 sequence (looked up): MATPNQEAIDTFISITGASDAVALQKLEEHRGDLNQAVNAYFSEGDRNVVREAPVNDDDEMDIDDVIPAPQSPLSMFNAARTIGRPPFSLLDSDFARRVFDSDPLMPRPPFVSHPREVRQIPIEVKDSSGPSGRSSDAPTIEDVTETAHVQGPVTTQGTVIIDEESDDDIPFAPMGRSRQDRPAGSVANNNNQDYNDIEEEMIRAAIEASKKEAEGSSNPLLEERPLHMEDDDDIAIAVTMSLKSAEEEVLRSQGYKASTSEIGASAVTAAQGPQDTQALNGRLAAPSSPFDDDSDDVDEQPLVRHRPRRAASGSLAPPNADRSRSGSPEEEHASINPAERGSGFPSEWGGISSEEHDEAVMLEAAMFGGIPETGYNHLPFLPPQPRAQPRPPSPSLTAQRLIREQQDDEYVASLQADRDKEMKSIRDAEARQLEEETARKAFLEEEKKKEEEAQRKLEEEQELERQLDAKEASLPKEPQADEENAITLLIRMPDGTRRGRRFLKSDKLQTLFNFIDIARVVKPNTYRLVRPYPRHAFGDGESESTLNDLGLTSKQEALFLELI

6His-PUX9 = target: T3, 6His-PUX9 (Arabidopsis thaliana, UniProt Q4V3D3 1-469); assay: ITC
T3 sequence (looked up): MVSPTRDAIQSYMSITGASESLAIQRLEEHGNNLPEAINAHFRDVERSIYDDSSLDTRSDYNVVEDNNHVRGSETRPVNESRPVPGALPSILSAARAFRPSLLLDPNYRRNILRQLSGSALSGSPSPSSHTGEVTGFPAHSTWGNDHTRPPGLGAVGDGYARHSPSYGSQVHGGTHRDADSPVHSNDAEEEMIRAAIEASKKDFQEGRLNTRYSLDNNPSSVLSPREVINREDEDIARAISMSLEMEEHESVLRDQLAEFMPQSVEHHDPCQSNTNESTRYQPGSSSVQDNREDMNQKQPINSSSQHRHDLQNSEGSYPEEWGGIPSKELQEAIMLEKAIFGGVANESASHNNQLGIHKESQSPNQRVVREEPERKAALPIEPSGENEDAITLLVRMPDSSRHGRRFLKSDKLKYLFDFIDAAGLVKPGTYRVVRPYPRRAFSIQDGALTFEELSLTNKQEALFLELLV

6His-PUX13 = target: T4, 6His-PUX13 (Arabidopsis thaliana, UniProt Q9C5G7 1-525); assay: ITC
T4 sequence (looked up): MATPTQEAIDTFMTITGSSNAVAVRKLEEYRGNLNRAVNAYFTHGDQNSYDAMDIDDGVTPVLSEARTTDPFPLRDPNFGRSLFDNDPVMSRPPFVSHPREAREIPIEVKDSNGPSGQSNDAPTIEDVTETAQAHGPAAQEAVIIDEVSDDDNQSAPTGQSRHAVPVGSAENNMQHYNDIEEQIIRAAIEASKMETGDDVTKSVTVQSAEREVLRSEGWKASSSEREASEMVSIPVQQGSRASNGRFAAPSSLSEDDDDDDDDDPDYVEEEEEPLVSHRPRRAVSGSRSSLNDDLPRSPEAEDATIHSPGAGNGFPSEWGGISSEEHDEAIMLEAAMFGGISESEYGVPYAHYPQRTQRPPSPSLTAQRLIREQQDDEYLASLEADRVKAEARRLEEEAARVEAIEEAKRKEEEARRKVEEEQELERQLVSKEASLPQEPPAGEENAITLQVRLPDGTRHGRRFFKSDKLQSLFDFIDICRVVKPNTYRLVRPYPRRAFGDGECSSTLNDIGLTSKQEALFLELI

[1] = target: T5, GST-RPN10 (amino acids 201 to 386) (Arabidopsis thaliana, UniProt P55034 201-386); assay: pull-down
T5 sequence (looked up): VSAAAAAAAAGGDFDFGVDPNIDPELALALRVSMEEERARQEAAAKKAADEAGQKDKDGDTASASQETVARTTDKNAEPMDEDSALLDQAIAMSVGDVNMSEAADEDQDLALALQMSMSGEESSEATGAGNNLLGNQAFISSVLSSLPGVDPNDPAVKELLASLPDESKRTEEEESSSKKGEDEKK

HA-DSK2a = target: T6, HA-DSK2a (Arabidopsis thaliana, UniProt Q9SII9 1-538); assay: pull-down
T6 sequence (looked up): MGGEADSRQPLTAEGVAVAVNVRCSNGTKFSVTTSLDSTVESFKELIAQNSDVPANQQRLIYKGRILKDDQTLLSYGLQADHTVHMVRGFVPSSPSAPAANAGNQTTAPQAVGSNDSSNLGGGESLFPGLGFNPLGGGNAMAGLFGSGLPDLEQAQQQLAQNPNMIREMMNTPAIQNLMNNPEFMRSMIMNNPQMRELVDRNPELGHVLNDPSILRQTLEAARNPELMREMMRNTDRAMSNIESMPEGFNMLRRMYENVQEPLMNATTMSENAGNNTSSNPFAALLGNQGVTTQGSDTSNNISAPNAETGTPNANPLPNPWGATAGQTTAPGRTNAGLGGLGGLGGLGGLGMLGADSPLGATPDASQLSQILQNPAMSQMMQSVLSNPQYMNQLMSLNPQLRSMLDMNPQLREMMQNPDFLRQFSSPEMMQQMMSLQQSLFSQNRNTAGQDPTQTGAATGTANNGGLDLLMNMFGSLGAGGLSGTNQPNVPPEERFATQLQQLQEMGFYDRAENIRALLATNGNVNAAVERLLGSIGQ

[2] = target: T7, Arabidopsis DSK2a (pull-down of Figure S1E) (Arabidopsis thaliana, UniProt Q9SII9 1-538); assay: pull-down
T7 sequence (looked up): T6 sequence (looked up)

GST-PUX7 = target: T8, GST-PUX7 (Arabidopsis thaliana, UniProt Q94JZ8 1-468); assay: pull-down
T8 sequence (looked up): T1 sequence (looked up)

GST-PUX8 = target: T9, GST-PUX8 (Arabidopsis thaliana, UniProt F4JPR7 1-564); assay: pull-down
T9 sequence (looked up): T2 sequence (looked up)

GST-PUX9 = target: T10, GST-PUX9 (Arabidopsis thaliana, UniProt Q4V3D3 1-469); assay: pull-down
T10 sequence (looked up): T3 sequence (looked up)

GST-PUX13 = target: T11, GST-PUX13 (Arabidopsis thaliana, UniProt Q9C5G7 1-525); assay: pull-down
T11 sequence (looked up): T4 sequence (looked up)

GST-Ubx5 = target: T12, GST-Ubx5 (S. cerevisiae, UniProt Q06682 1-500); assay: pull-down
T12 sequence (looked up): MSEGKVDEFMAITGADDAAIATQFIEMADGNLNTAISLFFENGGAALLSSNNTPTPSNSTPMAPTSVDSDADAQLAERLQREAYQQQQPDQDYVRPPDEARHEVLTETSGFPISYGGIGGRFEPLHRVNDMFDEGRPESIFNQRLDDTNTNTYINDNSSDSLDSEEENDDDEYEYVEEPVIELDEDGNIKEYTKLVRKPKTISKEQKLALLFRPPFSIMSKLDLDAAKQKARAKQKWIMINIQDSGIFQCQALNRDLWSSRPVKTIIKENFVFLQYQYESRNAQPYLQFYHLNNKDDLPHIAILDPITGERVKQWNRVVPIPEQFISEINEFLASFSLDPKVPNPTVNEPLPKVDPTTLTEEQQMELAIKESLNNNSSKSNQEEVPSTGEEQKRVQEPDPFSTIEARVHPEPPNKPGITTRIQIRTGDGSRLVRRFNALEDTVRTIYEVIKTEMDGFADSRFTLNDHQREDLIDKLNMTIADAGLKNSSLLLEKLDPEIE

Measured: binding result

B1: 6His-ATG8e (natural protein, Arabidopsis thaliana, UniProt Q8S926 1-118, looked up)
chain: MNKGSIFKMDNDFEKRKAEAGRIREKYPDRIPVIVEKAEKSEVPNIDKKKYLVPSDLTVGQFVYVIRKRIKLSAEKAIFIFVDNVLPPTGELMSSVYEDKKDEDGFLYITYSGENTFG
not listed: GST-Ubx5
binds: all other assays above

B2: 6His-Atg8 (yeast) (natural protein, S. cerevisiae, UniProt P38182 1-116, looked up)
chain: MKSTFKSEYPFEKRKAESERIADRFKNRIPVICEKAEKSDIPEIDKRKYLVPADLTVGQFVYVIRKRIMLPPEKAIFIFVNDTLPPTAALMSAIYQEHKDKDGFLYVTYSGENTFG
binds: GST-Ubx5
